The results in this text go back to patent US20040037843A1.

Assay [1] addresses HLA-A*0201 (human). The note with it: remark: other sources report otherwise.
Assay [2] concerns the target HLA-A*0203 (human). The settings on record: remark: other sources report otherwise.
The target in assay [3] is HLA-A*0206 (human). The note with it: remark: other sources report otherwise.
Assay [4] addresses HLA-A*0201 (human). As to the kind of experiment: inhibition of 125I probe peptide binding to purified HLA, gel filtration. The settings on record: remark: other sources report otherwise. For orientation: SEC sorts molecules by how far they enter the pores of the column.
Assay [5] addresses HLA-A*0202 (human). The assay is described as above. The note with it: remark: other sources report otherwise.
Assay [6] concerns the target HLA-A*0206 (human). The assay is described as above. The settings on record: remark: other sources report otherwise.
Assay [7] has as its target HLA-A*2401 (human).
Assay [8] addresses HLA-A*0201 (human). As to the kind of experiment: competition with 125I-labelled standard peptide for purified HLA, gel filtration. The note with it: remark: other sources report otherwise.
Assay [9] has as its target HLA-A*0202 (human). The description is as above. The settings on record: remark: other sources report otherwise.
Assay [10] deals with HLA-A*0203 (human). Described as above. The settings on record: remark: other sources report otherwise.
Assay [11] has as its target HLA-A*0206 (human). The assay is described as above. The note with it: remark: other sources report otherwise.
The target in assay [12] is HLA-A*2401 (human). As to the kind of experiment: competition with 125I-labelled probe peptide for purified HLA, gel filtration.
Assay [13] deals with HLA-A*2401 (purified HLA class I molecule) (human). As to the kind of experiment: competition with 125I-labelled standard peptide for purified HLA, gel filtration.
The target in assay [14] is HLA-A*0202 (human). The experiment in a line: competition with 125I probe peptide on purified HLA, gel filtration. The note with it: remark: other sources report otherwise.
Assay [15] deals with HLA-A*2401 (purified HLA class I molecule) (human).
The target of assay [16] is HLA-A*2401 (human). The source holds these as a separate data set.
Assay [17] has as its target HLA-A*0202 (human). The note with it: remark: other sources report otherwise.
Assay [18] deals with HLA-A*6802 (human). The settings on record: remark: other sources report otherwise.
Assay [19] concerns the target HLA-A*2401 (human). The experiment in a line: competition with 125I-labelled probe peptide for purified HLA, gel filtration. The source holds these as a separate data set.
[20] abbreviates: scale: ratio to standard peptide.

Like-named read-outs stand apart in the source and are kept apart here. Ends that are not written are not given here.

What is called IC50 is the point on the concentration scale where inhibition reaches its midpoint. Consider SVGCTGAVPV [peptide 1418.35 (HuK2.11.V10)], for which the figures for the IC50 in [1], in assay [2] and in [3] were 104 nM, 154 nM and 552 nM, respectively.
With KVTKFMLCV [Peptide 60.0220 (PSA.187.V9)], the IC50 in assay [4] worked out at 69 nM; in assay [5], 518 nM; in assay [6], 128 nM.
In the case of SYKHEQVYI [PAP peptide, position 96, 9 amino acids (A24 supermotif)], the relative binding ratio (IC50 of standard peptide / IC50 of test peptide) in assay [7] stood at 0.26.
With ITSWGSEPCAL (not fully specified) [PSA position 222, 11 amino acids], the relative binding ratio came to 0.001 in assay [8], 0.012 in [9], 0.0096 in [10] and 0.0001 in [11].
Consider LFPPEGVSIW [PAP position 123, 10 amino acids], for which the relative binding ratio (IC50 of standard peptide / IC50 of test peptide) in assay [12] and in assay [13] was 0.014 throughout.
Turning to GLHGQDLFGI [Peptide 1166.11 … (PAP.196)], the IC50 in [14] stood at 0.9 nM.
Regarding EYIRKRYRKF [PAP (prostatic acid phosphatase) peptide, position 83, 10 amino acids], in assay [15], the relative binding ratio (IC50 of standard peptide / IC50 of test peptide) worked out at 0.0067.
PTQEPALGTT [Kallikrein position 142, 10 amino acids]: the relative binding ratio (IC50 of standard peptide / IC50 of test peptide) in [8] was 0.0084; in assay [9], 0.022; in assay [10] it was 0.052; in [11] it was 0.0037.
For the molecule HYRKWIKDTI [Kallikrein position 248, 10 amino acids (…)], the relative binding ratio (IC50 of standard peptide / IC50 of test peptide) in [16] was 0.055.
On to IWSKVYDPL [PAP position 205, 9 amino acids (…)], for which, in assay [16], the relative binding ratio (IC50 of standard peptide / IC50 of test peptide) was 0.0024.
For SLQCVSLHLL [peptide 1419.66 (HuK2.170, 10-mer)], the IC50 was determined as 263 nM in [1], 4.9 nM in assay [17], 446 nM in [3] and 5000 nM in [18].
Consider LFFWLDRSVL [PAP position 22, 10 amino acids], for which the relative binding ratio (IC50 of standard peptide / IC50 of test peptide) in [12] and in [19] was 0.0045 throughout.
Take KLQCVDLHVV [Peptide 63.0058 (PSA.166.V10)]: in [6], the half-inhibitory concentration (IC50) worked out at 500 nM.
For the molecule HLLSNDMCARA (not fully specified) [peptide 1419.15 (HuK2.177)], the IC50 in assay [2] was 250 nM.
DLMLLRLSEPV [Peptide 63.0109 (PSA.116.V11)] yielded an IC50 in assay [4] of 50 nM.
LTLSVTWIGA [PSA peptide, position 4, 10 amino acids]: the relative binding ratio is 0.0018 in [8] (setting [20]), 0.045 in [9] (setting [20]), 0.082 in assay [10] (setting [20]) and 0.011 in assay [11] (setting [20]).
Molecule ALFPPEGVSV [Peptide 1419.61 … (PAP.122.V10)] gave a half-inhibitory concentration (IC50) in [14] of 1 nM.
For the molecule IALSVGCTGAV [Kallikrein position 8, 11 amino acids], the relative binding ratio worked out at 0.0009 in assay [8], 0.0032 in [9], 0.027 in [10] and 0.01 in assay [11].
GAAPLILSRIV [PSA position 12, 11 amino acids]: the relative binding ratio in [9] worked out at 0.022; in assay [10], 0.011; in [11] it was 0.0006.
With RYRKFLNESY [PAP peptide, position 88, 10 amino acids (A24 supermotif)], the relative binding ratio (IC50 of standard peptide / IC50 of test peptide) in assay [7] came out at 0.0057.
Regarding GFLFLLFFWL [PAP (prostatic acid phosphatase) peptide, position 17, 10 amino acids], the relative binding ratio (IC50 of standard peptide / IC50 of test peptide) in assay [15] is 0.0007.
Turning to GWGSIEPEEF [Kallikrein position 156, 10 amino acids (…)], the relative binding ratio (IC50 of standard peptide / IC50 of test peptide) in assay [16] turned out to be 0.0001.
For the molecule VVFLTLSVTWV [Peptide 63.0185 (PSA.1.V11)], the IC50 in assay [4] turned out to be 89 nM; in assay [6], 336 nM.
VVFLTLSVTWI [Peptide 1419.25 (PSA.1)]: the IC50 stood at 385 nM in assay [4], 159 nM in assay [5] and 2850 nM in [6].
As for LFPPEGVSI [PAP position 123, 9 amino acids], the relative binding ratio (IC50 of standard peptide / IC50 of test peptide) in [12] and in [13] was 0.0033 each time.
For LTPKKLQCVDL [PSA peptide, position 162, 11 amino acids], the relative binding ratio in assay [9] (setting [20]) amounted to 0.0087; in assay [10] (setting [20]), 0.0074.
With GFLFLLFFW [PAP (prostatic acid phosphatase) peptide, position 17, 9 amino acids], the relative binding ratio (IC50 of standard peptide / IC50 of test peptide) in assay [15] is 0.0016.
On to LLRLSEPAELT [PSA peptide, position 119, 11 amino acids], for which the relative binding ratio in assay [8] (setting [20]) was 0.0023; in assay [11] (setting [20]), 0.0002.
Consider FFWLDRSVL [PAP (prostatic acid phosphatase) peptide, position 23, 9 amino acids], for which, in assay [15], the relative binding ratio (IC50 of standard peptide / IC50 of test peptide) worked out at 0.0017.
Consider VISNDVCAQV [PSA position 174, 10 amino acids], for which the relative binding ratio (IC50 of standard peptide / IC50 of test peptide) in assay [8] was 0.0008.
LYFEKGEYF [PAP position 318, 9 amino acids]: the relative binding ratio (IC50 of standard peptide / IC50 of test peptide) in assay [12] and in assay [13] was 2.5 in each case.
On to SWPQGFGQL [PAP peptide, position 62, 9 amino acids (A24 supermotif)], for which the relative binding ratio (IC50 of standard peptide / IC50 of test peptide) in assay [7] is 0.0013.
Consider SLHLLSNDMCV [peptide 1418.66 (HuK2.175.V11)], for which the IC50 stood at 8.6 nM in assay [1]; 0.8 nM in [17]; 10 nM in assay [2]; 2310 nM in [3]; 2160 nM in assay [18].
For HLLSNDMCARV [peptide 1418.67 (HuK2.177.V11)], the IC50 in [17] worked out at 1.3 nM; in assay [2], 5.3 nM; in assay [3], 37 nM; in assay [18] it was 860 nM.
In turn, FLTLSVTWV [Peptide 60.0216 (PSA.3.V9)] registered an IC50 in assay [5] of 8.4 nM.
On to LYCESVHNF [PAP position 213, 9 amino acids], for which the relative binding ratio (IC50 of standard peptide / IC50 of test peptide) in [12] and in assay [13] was 0.44 each time.
Regarding LMLLRLSEPA [peptide 63.0014 (HuK2.121)], the values for the half-maximal inhibitory concentration (IC50) in assay [1] and in assay [18] were 200 nM and 5000 nM, respectively.
For LLSNDMCARA (not fully specified) [Kallikrein (human kallikrein2) peptide, position 178, 10 amino acids], the relative binding ratio in assay [8] (setting [20]) worked out at 0.003; in [9] (setting [20]) it was 0.08; in assay [10] (setting [20]), 0.028; in assay [11] (setting [20]) it was 0.002.
SLQCVSLHV [peptide 1418.19 (HuK2.170.V9)]: the IC50 in [1] came to 56 nM; in assay [2], 48 nM; in assay [3], 4110 nM.
For the molecule SLQCVSLHL [peptide 60.0191 (HuK2.170, 9-mer)], the IC50 worked out at 500 nM in assay [1], 51 nM in assay [17], 417 nM in assay [2] and 2580 nM in assay [18].
